This is an account of results in publication PMC3634016 (PLoS ONE, 2013).

The term stoichiometry N denotes a count of units in the complex or per binding partner.

The target in this assay is T1, Wild type rat calmodulin (CaM) (rat, UniProt P0DP29 1-149).
T1 construct: calmodulin, rat, wild type; also called Ca^2+-CaM; calcium-calmodulin; source: expressed from pET9d (Novagen), purified (Phenyl Sepharose, gel filtration)
In words: ITC; peptide titrated into Ca^2+-CaM alone; 25°C; 25 mM Tris-Cl pH 7.5, 75 mM NaCl, 0.5 mM CaCl2; one-set-of-sites model. To be noted: both partners purified.

B1: mammalian NSCaTE_(Cav1.2) peptide (peptide)
peptide: SWQAAIDAARQAKLMGS
notes: 17 mer with the N-terminal NSCaTE motif of the mammalian L-type calcium channel Cav1.2; also called Cav1.2 NSCaTE; source: synthetic peptide (CanPeptide Inc, >95% purity)
With B1, the “stoichiometry N” value worked out at 2.
